# Columns and labels:
# HLA-A*69:01 = test: IEDB peptide-MHC binding, purified MHC/direct/fluorescence; filed as Kd, often an IC50 or EC50 that approximates it; ≥ and ≤ were set here for values at or beyond the usual limits of such assays
# HLA-B*27:05 = test: as above; conditions: source organism: Homo sapiens
# HLA-A*03:01 [1] = test: IEDB peptide-MHC binding, purified MHC/competitive/radioactivity; filed as Kd, often an IC50 or EC50 that approximates it; ≥ and ≤ were set here for values at or beyond the usual limits of such assays; conditions: source organism: Dengue virus 1 Brazil/97-11/1997
# HLA-A*30:01 = test: as above
# HLA-A*30:02 = test: as above
# HLA-A*11:01 = test: IEDB peptide-MHC binding, purified MHC/direct/fluorescence; filed as Kd, often an IC50 or EC50 that approximates it; ≥ and ≤ were set here for values at or beyond the usual limits of such assays
# HLA-B*15:01 = test: as above
# HLA-B*58:01 = test: as above; conditions: source organism: SARS-CoV1
# HLA-A*02:01 [2] = test: IEDB peptide-MHC binding, purified MHC/competitive/fluorescence; ≥ and ≤ were set here for values at or beyond the usual limits of such assays
# HLA-A*01:01 = test: IEDB peptide-MHC binding, purified MHC/competitive/radioactivity; filed as Kd, often an IC50 or EC50 that approximates it; ≥ and ≤ were set here for values at or beyond the usual limits of such assays
# HLA-A*26:01 = test: as above
# HLA-B*07:02 = test: IEDB peptide-MHC binding, purified MHC/direct/fluorescence; filed as Kd, often an IC50 or EC50 that approximates it; ≥ and ≤ were set here for values at or beyond the usual limits of such assays
# HLA-B*40:01 = test: as above
# HLA-A*02:01 [3] = test: as above
# HLA-A*31:01 = test: as above
# HLA-A*03:01 [4] = test: as above; conditions: source organism: Entamoeba histolytica HM-1:IMSS
# HLA-A*23:01 = test: IEDB peptide-MHC binding, purified MHC/competitive/radioactivity; filed as Kd, often an IC50 or EC50 that approximates it; ≥ and ≤ were set here for values at or beyond the usual limits of such assays
# HLA-A*02:02 = test: as above; conditions: source organism: Vaccinia virus WR
# HLA-A*02:03 = test: as above; conditions: source organism: Vaccinia virus WR
# HLA-A*02:06 = test: as above; conditions: source organism: Vaccinia virus WR
# [5] = source organism: Dengue virus 1 Brazil/97-11/1997
# [6] = source organism: Dengue virus 2 Jamaica/1409/1983
# [7] = source organism: Vaccinia virus WR
# [8] = source organism: Zaire ebolavirus
# [9] = source organism: Dengue virus 3 Martinique/1243/1999
# [10] = source organism: Dengue virus 4 Philippines/H241/1956
# [11] = source organism: Vaccinia virus Copenhagen
# [12] = source organism: Dengue virus 2 Peru/IQT2913/1996
# [13] = source organism: Vibrio cholerae
# [14] = source organism: Bacillus anthracis
# [15] = source organism: Pseudomonas aeruginosa
# [16] = source organism: Sudan ebolavirus
# [17] = source organism: Dengue virus 4 Thailand/0348/1991
sequence,measurement,setting,value
AHSTIMPRL,Kd,HLA-A*69:01; source organism: Homo sapiens,0.832 µM
same,Kd,HLA-B*27:05,8.62 µM
AIKVLRGFK,Kd,HLA-A*03:01 [1],0.119 µM
same,Kd,HLA-A*30:01; [5],0.501 µM
AKQPATLRKY,Kd,HLA-A*30:02; [6],5.24 µM
ASHFISNSW,Kd,HLA-A*11:01; source organism: SARS-CoV1,≥ 53 µM
same,Kd,HLA-B*15:01; source organism: SARS-CoV1,11.4 µM
same,Kd,HLA-B*58:01,0.072 µM
ASKSLKPTK,Kd,HLA-A*30:01; [7],0.0151 µM
ASLFLPKLV,IC50,HLA-A*02:01 [2]; [8],11.9 µM
ASTVIYRGT,IC50,HLA-A*02:01 [2]; [8],≥ 222 µM
DLCGSVFLV,IC50,HLA-A*02:01 [2]; source organism: Hepatitis C virus genotype 1,5 µM
EEALKGLPIR,Kd,HLA-A*30:01; [9],0.609 µM
ESEIPNLDII,Kd,HLA-A*01:01; [6],7.19 µM
ETLEQMQRKH,Kd,HLA-A*26:01; [5],14 µM
ETTKKDLGI,Kd,HLA-A*26:01; [5],≥ 54.7 µM
FMSNGEHVP,IC50,HLA-A*02:01 [2]; [7],57.6 µM
FPEHIFPAL,Kd,HLA-A*69:01; source organism: Mus musculus,2.33 µM
same,Kd,HLA-B*07:02; source organism: Mus musculus,0.937 µM
same,Kd,HLA-B*40:01; source organism: Mus musculus,0.278 µM
GEGGVGSIL,Kd,HLA-B*40:01; source organism: Mycobacterium tuberculosis,0.033 µM
GLYKSINVE,IC50,HLA-A*02:01 [2]; [7],39.5 µM
GVVTKSGDY,Kd,HLA-A*26:01; [10],2.42 µM
same,Kd,HLA-A*30:02; [10],0.98 µM
GVVTRSGAY,Kd,HLA-A*26:01; [6],0.836 µM
same,Kd,HLA-A*30:02; [6],0.00928 µM
HAKSQCRPS,Kd,HLA-A*30:01; [11],0.854 µM
HVFFSEYIV,Kd,HLA-A*30:01; [7],0.883 µM
HVTRGAVLMY,Kd,HLA-A*26:01; [5],0.233 µM
IITASILLWY,Kd,HLA-A*01:01; [6],0.0932 µM
ILGTVSWNL,Kd,HLA-A*02:01 [3]; source organism: SARS-CoV1,0.382 µM
same,Kd,HLA-A*69:01; source organism: SARS-CoV1,≥ 22.9 µM
same,Kd,HLA-B*58:01,0.804 µM
IMAILCVPNA,Kd,HLA-A*30:01; [6],0.045 µM
ITDFAGKTV,Kd,HLA-A*01:01; [9],≥ 20.3 µM
IVQPENLEY,Kd,HLA-A*01:01; [12],0.512 µM
same,Kd,HLA-A*30:02; [12],0.11 µM
IVQYENLKY,Kd,HLA-A*01:01; [5],5.95 µM
same,Kd,HLA-A*30:02; [5],0.191 µM
KHKIFSPFK,Kd,HLA-A*30:01; [7],0.000886 µM
KIGDFGLATV,IC50,HLA-A*02:01 [2]; source organism: Homo sapiens,0.04 µM
KLSNAKWLA,Kd,HLA-A*02:01 [3]; [13],0.413 µM
same,Kd,HLA-A*31:01; [13],1.63 µM
same,Kd,HLA-B*15:01; [13],1.63 µM
KMNNDVFFM,Kd,HLA-A*02:01 [3]; [14],0.0023 µM
same,Kd,HLA-A*69:01; [14],0.618 µM
KRLEELLPA,IC50,HLA-A*02:01 [2]; [8],≥ 683 µM
KSHAIYWDK,Kd,HLA-A*30:01; [7],0.0105 µM
KSKSRRLNL,Kd,HLA-A*30:01; [7],0.0126 µM
KTSHAKVLV,Kd,HLA-A*30:01; [7],0.0709 µM
KVKKKYAIG,Kd,HLA-A*30:01; [7],0.00155 µM
KYWRQMIIK,Kd,HLA-A*03:01 [4],≥ 20 µM
same,Kd,HLA-A*31:01; source organism: Entamoeba histolytica HM-1:IMSS,0.0249 µM
LAGVSLLPVC,Kd,HLA-A*30:01; [9],15.9 µM
LNASQYANC,IC50,HLA-A*02:01 [2]; [11],≥ 1400 µM
LNGAMVEYV,IC50,HLA-A*02:01 [2]; [11],29.1 µM
LQKVPHTRY,Kd,HLA-A*31:01; [15],17.2 µM
same,Kd,HLA-B*15:01; [15],0.476 µM
LSEKEENMV,Kd,HLA-A*01:01; [10],6.47 µM
LSLLQLPRD,IC50,HLA-A*02:01 [2]; [16],≥ 173 µM
LTLKPCHAL,Kd,HLA-A*02:01 [3]; source organism: Brucella suis,4.76 µM
same,Kd,HLA-A*11:01; source organism: Brucella suis,18 µM
same,Kd,HLA-A*69:01; source organism: Brucella suis,0.546 µM
same,Kd,HLA-B*07:02; source organism: Brucella suis,1.96 µM
LTRYALHGK,Kd,HLA-A*30:01; [7],0.000252 µM
LTSREVLLL,Kd,HLA-A*01:01; [5],0.288 µM
LTTPENITT,IC50,HLA-A*02:01 [2]; [16],≥ 157 µM
MFGGVSWMV,Kd,HLA-A*23:01; [10],8.79 µM
MRSRWSRKML,Kd,HLA-A*30:01; [5],0.175 µM
MTRLPILLL,Kd,HLA-A*30:01; [7],0.000646 µM
NSLEVEDYGF,Kd,HLA-A*23:01; [6],5.43 µM
NVLDEKYNT,IC50,HLA-A*02:01 [2]; source organism: Vaccinia virus,≥ 319 µM
PTIEDDKIVT,Kd,HLA-A*02:02,13.8 µM
same,Kd,HLA-A*02:03,≥ 20.6 µM
same,Kd,HLA-A*02:06,≥ 69.8 µM
QIMECSRML,Kd,HLA-A*02:02,0.62 µM
same,Kd,HLA-A*02:03,1.38 µM
same,Kd,HLA-A*02:06,0.948 µM
QQNNSFIIST,Kd,HLA-A*02:02,7 µM
same,Kd,HLA-A*02:03,5.04 µM
same,Kd,HLA-A*02:06,5.71 µM
RGWGNGCGLF,Kd,HLA-A*23:01; [17],0.898 µM
same,Kd,HLA-A*30:02; [17],0.0154 µM
RIITILQDIV,Kd,HLA-A*02:02,0.595 µM
same,Kd,HLA-A*02:03,0.209 µM
same,Kd,HLA-A*02:06,0.0948 µM

# — the Immune Epitope Database (IEDB)
